Assay results published in US20260193342A1 (ZOETIS SERVICES, published 2026).

B1: mAb1, caninized anti-IL31 antibody 34D03, canine IgGC, N434H (antibody)
chain 1: EVQLVESGGDLVKPGGSLRLSCVASGFTFSNYGMSWVRQAPGKGLQWVATISYGGSYTYYPDNIKGRFTISRDNAKNTLYLQMNSLRAEDTAMYYCVRGYGYDTMDYWGQGTLVTVSSASTTAPSVFPLAPSCGSQSGSTVALACLVSGYIPEPVTVSWNSVSLTSGVHTFPSVLQSSGLYSLSSMVTVPSSRWPSETFTCNVAHPATNTKVDKPVAKECECKCNCNNCPCPGCGLLGGPSVFIFPPKPKDILVTARTPTVTCVVVDLDPENPEVQISWFVDSKQVQTANTQPREEQSNGTYRVVSVLPIGHQDWLSGKQFKCKVNNKALPSPIEEIISKTPGQAHQPNVYVLPPSRDEMSKNTVTLTCLVKDFFPPEIDVEWQSNGQQEPESKYRMTPPQLDEDGSYFLYSKLSVDKSRWQRGDTFICAVMHEALHHHYTQISLSHSPGK
chain 2: EIVMTQSPASLSLSQEEKVTITCKASQSVSFAGTGLMHWYQQKPGQAPKLLIYRASNLEAGVPSRFSGSGSGTDFSFTISSLEPEDVAVYYCQQSREYPWTFGQGTKLEIKRNDAQPAVYLFQPSPDQLHTGSASVVCLLNSFYPKDINVKWKVDGVIQDTGIQESVTEQDKDSTYSLSSTLTMSSTEYLSHELYSCEITHKSLPSTLIKSFQRSEC
B2: mAb1, caninized anti-IL31 antibody 34D03, canine IgGD, N434H (antibody)
chain 1: EVQLVESGGDLVKPGGSLRLSCVASGFTFSNYGMSWVRQAPGKGLQWVATISYGGSYTYYPDNIKGRFTISRDNAKNTLYLQMNSLRAEDTAMYYCVRGYGYDTMDYWGQGTLVTVSSASTTAPSVFPLAPSCGSTSGSTVALACLVSGYFPEPVTVSWNSGSLTSGVHTFPSVLQSSGLYSLSSTVTVPSSRWPSETFTCNVVHPASNTKVDKPVPKESTCKCISPCPVPESLGGPSVFIFPPKPKDILRITRTPEITCVVLDLGREDPEVQISWFVDGKEVHTAKTQPREQQFNSTYRVVSVLPIEHQDWLTGKEFKCRVNHIGLPSPIERTISKARGQAHQPSVYVLPPSPKELSSSDTVTLTCLIKDFFPPEIDVEWQSNGQPEPESKYHTTAPQLDEDGSYFLYSKLSVDKSRWQQGDTFTCAVMHEALQHHYTDLSLSHSPGK
chain 2: EIVMTQSPASLSLSQEEKVTITCKASQSVSFAGTGLMHWYQQKPGQAPKLLIYRASNLEAGVPSRFSGSGSGTDFSFTISSLEPEDVAVYYCQQSREYPWTFGQGTKLEIKRNDAQPAVYLFQPSPDQLHTGSASVVCLLNSFYPKDINVKWKVDGVIQDTGIQESVTEQDKDSTYSLSSTLTMSSTEYLSHELYSCEITHKSLPSTLIKSFQRSEC
B3: mAb1, caninized anti-IL31 antibody 34D03, canine IgGD, WT (antibody)
heavy: EVQLVESGGDLVKPGGSLRLSCVASGFTFSNYGMSWVRQAPGKGLQWVATISYGGSYTYYPDNIKGRFTISRDNAKNTLYLQMNSLRAEDTAMYYCVRGYGYDTMDYWGQGTLVTVSSASTTAPSVFPLAPSCGSTSGSTVALACLVSGYFPEPVTVSWNSGSLTSGVHTFPSVLQSSGLYSLSSTVTVPSSRWPSETFTCNVVHPASNTKVDKPVPKESTCKCISPCPVPESLGGPSVFIFPPKPKDILRITRTPEITCVVLDLGREDPEVQISWFVDGKEVHTAKTQPREQQFNSTYRVVSVLPIEHQDWLTGKEFKCRVNHIGLPSPIERTISKARGQAHQPSVYVLPPSPKELSSSDTVTLTCLIKDFFPPEIDVEWQSNGQPEPESKYHTTAPQLDEDGSYFLYSKLSVDKSRWQQGDTFTCAVMHEALQNHYTDLSLSHSPGK
VL: EIVMTQSPASLSLSQEEKVTITCKASQSVSFAGTGLMHWYQQKPGQAPKLLIYRASNLEAGVPSRFSGSGSGTDFSFTISSLEPEDVAVYYCQQSREYPWTFGQGTKLEIK
notes: VH/VL: the caninized 34D03 entries of the listing; also called ID No. 37
B4: mAb2 of Table 4A, caninized anti-NGF antibody ZTS-841, canine IgGA, N434W (antibody)
heavy: EVQLVESGGDLVKPGGSLRLSCVASGFTFSSHGMHWVRQSPGKGLQWVAVINSGGSSTYYTDAVKGRFTISRDNAKNTVYLQMNSLRAEDTAMYYCAKESVGGWEQLVGPHFDYWGQGTLVIVSSASTTAPSVFPLAPSCGSTSGSTVALACLVSGYFPEPVTVSWNSGSLTSGVHTFPSVLQSSGLHSLSSMVTVPSSRWPSETFTCNVVHPASNTKVDKPVFNECRCTDTPPCPVPEPLGGPSVLIFPPKPKDILRITRTPEVTCVVLDLGREDPEVQISWFVDGKEVHTAKTQSREQQFNGTYRVVSVLPIEHQDWLTGKEFKCRVNHIDLPSPIERTISKARGRAHKPSVYVLPPSPKELSSSDTVSITCLIKDFYPPDIDVEWQSNGQQEPERKHRMTPPQLDEDGSYFLYSKLSVDKSRWQQGDPFTCAVMHETLQWHYTDLSLSHSPGK
VL: QSVLTQPTSVSGSLGQRVTISCSGSTNNIGILGASWYQLFPGKAPKLLVYGNGNRPSGVPDRFSGADSGDSVTLTITGLQAEDEADYYCQSFDTTLGAHVFGGGTHLTVL
notes: also called ID No. 44
B5: mAb2 of Table 4A, caninized anti-NGF antibody ZTS-841, canine IgGD, WT (antibody)
heavy: EVQLVESGGDLVKPGGSLRLSCVASGFTFSSHGMHWVRQSPGKGLQWVAVINSGGSSTYYTDAVKGRFTISRDNAKNTVYLQMNSLRAEDTAMYYCAKESVGGWEQLVGPHFDYWGQGTLVIVSSASTTAPSVFPLAPSCGSTSGSTVALACLVSGYFPEPVTVSWNSGSLTSGVHTFPSVLQSSGLYSLSSTVTVPSSRWPSETFTCNVVHPASNTKVDKPVPKESTCKCISPCPVPESLGGPSVFIFPPKPKDILRITRTPEITCVVLDLGREDPEVQISWFVDGKEVHTAKTQPREQQFNSTYRVVSVLPIEHQDWLTGKEFKCRVNHIGLPSPIERTISKARGQAHQPSVYVLPPSPKELSSSDTVTLTCLIKDFFPPEIDVEWQSNGQPEPESKYHTTAPQLDEDGSYFLYSKLSVDKSRWQQGDTFTCAVMHEALQNHYTDLSLSHSPGK
VL: QSVLTQPTSVSGSLGQRVTISCSGSTNNIGILGASWYQLFPGKAPKLLVYGNGNRPSGVPDRFSGADSGDSVTLTITGLQAEDEADYYCQSFDTTLGAHVFGGGTHLTVL
notes: also called ID No. 55
B6: mAb2 of Table 4A, caninized anti-NGF antibody ZTS-841, canine IgGC, N434H (antibody)
heavy: EVQLVESGGDLVKPGGSLRLSCVASGFTFSSHGMHWVRQSPGKGLQWVAVINSGGSSTYYTDAVKGRFTISRDNAKNTVYLQMNSLRAEDTAMYYCAKESVGGWEQLVGPHFDYWGQGTLVIVSSASTTAPSVFPLAPSCGSQSGSTVALACLVSGYIPEPVTVSWNSVSLTSGVHTFPSVLQSSGLYSLSSMVTVPSSRWPSETFTCNVAHPATNTKVDKPVAKECECKCNCNNCPCPGCGLLGGPSVFIFPPKPKDILVTARTPTVTCVVVDLDPENPEVQISWFVDSKQVQTANTQPREEQSNGTYRVVSVLPIGHQDWLSGKQFKCKVNNKALPSPIEEIISKTPGQAHQPNVYVLPPSRDEMSKNTVTLTCLVKDFFPPEIDVEWQSNGQQEPESKYRMTPPQLDEDGSYFLYSKLSVDKSRWQRGDTFICAVMHEALHHHYTQISLSHSPGK
VL: QSVLTQPTSVSGSLGQRVTISCSGSTNNIGILGASWYQLFPGKAPKLLVYGNGNRPSGVPDRFSGADSGDSVTLTITGLQAEDEADYYCQSFDTTLGAHVFGGGTHLTVL
notes: also called ID No. 54
B7: mAb2 of Table 4A, caninized anti-NGF antibody ZTS-841, canine IgGD, N434H (antibody)
heavy: EVQLVESGGDLVKPGGSLRLSCVASGFTFSSHGMHWVRQSPGKGLQWVAVINSGGSSTYYTDAVKGRFTISRDNAKNTVYLQMNSLRAEDTAMYYCAKESVGGWEQLVGPHFDYWGQGTLVIVSSASTTAPSVFPLAPSCGSTSGSTVALACLVSGYFPEPVTVSWNSGSLTSGVHTFPSVLQSSGLYSLSSTVTVPSSRWPSETFTCNVVHPASNTKVDKPVPKESTCKCISPCPVPESLGGPSVFIFPPKPKDILRITRTPEITCVVLDLGREDPEVQISWFVDGKEVHTAKTQPREQQFNSTYRVVSVLPIEHQDWLTGKEFKCRVNHIGLPSPIERTISKARGQAHQPSVYVLPPSPKELSSSDTVTLTCLIKDFFPPEIDVEWQSNGQPEPESKYHTTAPQLDEDGSYFLYSKLSVDKSRWQQGDTFTCAVMHEALQHHYTDLSLSHSPGK
VL: QSVLTQPTSVSGSLGQRVTISCSGSTNNIGILGASWYQLFPGKAPKLLVYGNGNRPSGVPDRFSGADSGDSVTLTITGLQAEDEADYYCQSFDTTLGAHVFGGGTHLTVL
notes: also called ID No. 56

What was measured:
[1] = biological target: T1, canine FcRn complex (FcRn-α subunit and β-microglobulin) (canine, UniProt A0A8I3PFR8 25-347, biotin on the BAP tag by BirA (Example 5 only)); assay: SPR (Biacore), biotinylated FcRn on SA chip, IgG flowed, pH 6, 15 C
T1 sequence (A0A8I3PFR8 entry or part of it, one chain of several): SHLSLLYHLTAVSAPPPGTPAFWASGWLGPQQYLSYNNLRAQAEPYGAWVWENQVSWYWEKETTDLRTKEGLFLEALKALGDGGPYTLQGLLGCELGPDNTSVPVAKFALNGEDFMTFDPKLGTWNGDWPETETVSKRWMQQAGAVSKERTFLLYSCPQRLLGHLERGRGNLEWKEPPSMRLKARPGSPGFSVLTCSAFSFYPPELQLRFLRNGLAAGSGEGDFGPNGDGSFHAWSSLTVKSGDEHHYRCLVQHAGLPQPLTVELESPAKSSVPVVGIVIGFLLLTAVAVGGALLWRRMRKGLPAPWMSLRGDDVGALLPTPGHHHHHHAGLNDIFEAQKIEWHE

[2] = biological target: T1, canine FcRn complex (FcRn-α subunit and …); assay: SPR (Biacore), biotinylated FcRn on SA chip, IgG flowed, pH 7.4, 15 C

Binder	Kd [1] [nM]	Kd [2] [nM]
B1	87.9	–
B2	3.21	–
B3	34.5	–
B4	10.6	1520
B5	71	–
B6	20.4	–
B7	12	–
